Assay results: US20220125919A1

Assays:
[1] = target: EBV LMP2A epitope … presented by HLA-A*0201 (human); test: cell-based or functional assay
[2] = target: HCMV pp65 epitope … presented by HLA-A*0201 (human); test: cell-based or functional assay

TCR that recognizes peptide … presented by A*0201 (PDB #3REV)
luciferase induction relative to uninfected controls, short cassette design 9AA [1]: 12
luciferase induction relative to uninfected controls, short cassette design 17AA [1]: 10.3
luciferase induction relative to uninfected controls, short cassette design 25AA [1]: 14.6
luciferase induction relative to uninfected controls, short cassette design DPP [1]: 1.1
luciferase induction relative to uninfected controls, short cassette design RR [1]: 8.5

TCR that recognizes peptide … presented by A*0201 (PDB #5D2N)
luciferase induction relative to uninfected controls, short cassette design 9AA [2]: 33.6
luciferase induction relative to uninfected controls, short cassette design 17AA [2]: 42.8
luciferase induction relative to uninfected controls, short cassette design 25AA [2]: 42.3
luciferase induction relative to uninfected controls, short cassette design DPP [2]: 0.9
luciferase induction relative to uninfected controls, short cassette design RR [2]: 21.7
luciferase induction, in vitro T cell activation assay, short cassette design AAY [2]: 24.5
luciferase induction, in vitro T cell activation assay, targeting-sequence short cassette design A [2]: 32.5
luciferase induction, in vitro T cell activation assay, targeting-sequence short cassette design B [2]: 31.8
luciferase induction, in vitro T cell activation assay, targeting-sequence short cassette design C [2]: 29.1
luciferase induction, in vitro T cell activation assay, targeting-sequence short cassette design D [2]: 29.1
luciferase induction, in vitro T cell activation assay, targeting-sequence short cassette design E [2]: 28.4
luciferase induction, in vitro T cell activation assay, targeting-sequence short cassette design F [2]: 20.4
luciferase induction, in vitro T cell activation assay, targeting-sequence short cassette design G [2]: 35
luciferase induction, in vitro T cell activation assay, targeting-sequence short cassette design H [2]: 30.3
luciferase induction, in vitro T cell activation assay, targeting-sequence short cassette design I [2]: 22.5
luciferase induction, in vitro T cell activation assay, targeting-sequence short cassette design J [2]: 38.1
